This note sets out measurements from patent US7033593.

Experiment [1] addresses soluble HIV 89.6 gp120 envelope protein (HIV 89.6 (Clade B) primary isolate) (UniProt Q73372).
Experiment [2] addresses soluble CD4 (UniProt P01730). Description: SPR (BIAcore), gp120 and CD4. A general note: In SPR one partner is held on a chip, and binding of the other changes the refractive index at the surface.
The target of experiment [3] is soluble CD4 (UniProt P01730). As to the kind of experiment: SPR, gp120 over immobilised CD4.
Experiment [4] concerns the target soluble CD4 (UniProt P01730). As to the kind of experiment: SPR, preliminary experiments.
Experiment [5] concerns the target scrambled sequence DP178 peptide. Description: SPR SA-chip assay, scrDP178 surface.
Experiment [6] has as its target A32-gp120 complex (HIV 89.6 gp120 bound to mab A32) (HIV 89.6 (Clade B) primary isolate) (UniProt Q73372). As to the kind of experiment: SPR SA-chip assay, single component.
The target is the same in experiment [7]. As to the kind of experiment: SPR SA-chip assay (FIG. 28B).
The target of experiment [8] is soluble HIV 89.6 gp120 envelope protein (HIV 89.6 (Clade B) primary isolate) (UniProt Q73372). The source holds these as a separate data set.
The target is the same in experiment [9]. Description: SPR SA-chip assay, 89.6 gp120 over scrDP178 surface.
The target is the same in experiment [10]. As to the kind of experiment: SPR SA-chip assay, gp120 over scrDP178 surface.
Experiment [11] concerns the target HR-2 peptide DP178 (HIV-1 89.6).

“And” between values parts separate entries of the source, which are not always exact repeats. Equal entries are not always repeated. Where only a bound is given, the exact number is not on record here.

Turning to mab 17b (antibody), the % blocking of DP178 binding in experiment [1] was found to be 80%.

The Kd is the equilibrium constant for the complex coming apart. Lower therefore signals tighter binding. By koff is commonly meant a measure of how fast the partners let go of each other. Low readings indicate slow dissociation, high ones fast dissociation. As a reminder, the kon is the rate constant with which the complex forms. In the experiment with soluble CD4 [2], soluble, monomeric gp120 JRFL showed a Kd of 150 nM, a koff of 0.000884 s⁻¹ and a kon of 6000 M⁻¹ s⁻¹. In the experiment with soluble CD4 [3], the dissociation constant Kd was determined as 146 nM and the koff is 0.00088 s⁻¹. Moreover, the t1/2 of binding with soluble CD4 [4] was 14 min.

Regarding mab A32 (antibody), the RU (background signal) in experiment [5] was 10 RU and 20 RU.

In the experiment with soluble CD4 [2], soluble, monomeric gp120 DH12 returned a Kd of 78 nM, an off-rate (koff) of 0.000386 s⁻¹, a kon of 4900 M⁻¹ s⁻¹ and a t1/2 of 30 min. In the experiment with soluble CD4 [3], this substance came in with a Kd of 96 nM and a koff of 0.00047 s⁻¹. The substance also displayed a t1/2 of binding in the experiment with soluble CD4 [4] of 25 min.

mab 19b (antibody): in experiment [1], the % blocking of DP178 binding was found to be 68%.

In the case of mAb 48d (antibody), the % blocking of DP178 binding in experiment [1] was 80%.

As for scrambled sequence DP178 peptide, the koff in experiment [6] worked out at 0.017 s⁻¹. Besides, the RU in experiment [7] was below 200 RU; in experiment [10], 50 RU. In [8], this substance came in with a band density of 0.6 ODunits/mm^2. Further, the RU (background signal) in experiment [9] is 10 RU and 20 RU.

In turn, “soluble HIV 89.6 gp120 envelope protein, Q73372 32-508” showed a dissociation rate constant (koff) in experiment [11] of 0.017 s⁻¹.
